The nature of series [1]: Confocal microscopy of CCM-bound fibers. In kind it is physicochemical. To be noted: for fiber diameter after CCM binding (confocal): 50 μM protein saturated with CCM, pH 4.0. The protocol: Confocal Microscopy. Protein bound to CCM was studied by measuring 50 μM protein samples saturated with CCM as determined by fluorescent spectroscopic drug binding with a final 1% v/v DMSO (or 2×Kd). 10 μL of protein was added to a micro slide and a 22×22 mm #1 microscope cover glass. Slides were inverted and imaged using a Leica TCS SP8 X Laser Confocal Microscope using a dry 10× objective at RT. CCM was excited using a 460 nm line of the laser, and images were taken using a 470 to 550 nm detection window.
Confocal Microscopy. Q2LTF was diluted to 50 μM and saturated with 40 μM of curcumin (solubilized in DMSO) as determined by the binding affinity in drug-binding experiments. […] 5 μL of sample was deposited onto a microslide and covered with a 22×22 mm #1 microscope cover glass. Images were taken with a Leica TCS SP8 X laser confocal microscope using a dry 10× objective at RT. Samples were excited at 460 nm and images were taken with a 470-550 nm detection window.

Series [2] in a line: Parallel plate rheology. The conditions noted are these: 10 Hz, 5% strain. It is filed as physicochemical. The method, then: Rheology. Mechanical integrity of the Q2 hydrogel was assessed using a stress-controlled rheometer (Discovery Hybrid Rheometer 2, TA Instruments) equipped with a parallel plate geometry. After complete gelation of a 2 mM sample at 4° C., the sample was loaded onto the 8 mm diameter lower and upper plates with a 0.2 mm geometry gap. Strain and frequency settings were informed from previous Q hydrogel studies where the storage modulus (G′) and loss modulus (G″) were measured over the frequency range 0.1-10 Hz with a 5% oscillation strain.
Rheology. Q hydrogel variants were assessed for relative mechanical integrity with a stress-controlled rheometer (Discovery Hybrid Rheometer 2, TA Instruments) equipped with a parallel plate geometry. In parallel with microrheology measurements, 100 μL of each variant was incubated at 4° C. Upon gelation as assessed by microrheology, hydrogels were loaded onto an 8 mm diameter lower and upper plate with a 0.2 mm geometry gap. Storage modulus (G′) and loss modulus (G″) were measured from 0.1-10 Hz with 5% oscillation strain.

Series [3] can be described thus: TEM of protein fibers. In kind it is physicochemical. To be noted: for average protein fiber diameter (TEM): fibers, 50 mM NaH2PO4 pH 4.0. The protocol:
Transmission Electron Microscopy. Transmission electron microscopy (TEM) images were taken with a FEI Talos L120C transmission electron microscope. Protein fiber samples were diluted to 50 μM and 3 μL was spotted on Formvar/carbon-coated copper grids followed by 5 μL wash with water, and 3 μL staining with 1% v/v uranyl acetate solution each with incubation times of 1 min at RT. Fibrils were sized in ImageJ software (Version 1.52q).
(§1) Transmission Electron Microscopy. Transmission electron microscopy (TEM) images were taken with a FEI Talos L120C transmission electron microscope. Samples were diluted to 50 μM and 3 μL was spotted on Formvar/carbon-coated copper grids followed by a 5 μL wash with water, and 3 μL staining with 1% v/v uranyl acetate solution each with incubation times of 1 min. Between steps, filter paper was used to wick the grids. Following imaging, fibrils were sized in ImageJ software (Version 1.52q).

Series [4] is described as follows: TEM of hydrogel nanofibers. It is filed as physicochemical. The conditions noted are these: gel after incubation at 4 °C. The protocol: as §1, with “microscope. The supramolecular assembly of Q2 and Q were monitored over the course of 60 and 144 hours, respectively (in correspondence with tube inversion and microrheology). TEM images were taken of the gel at times consistent with when microrheological measurements for Q2 for consistent fibril sizing.” for “microscope.”, “by” for “by a”, “min.” for “min. Between steps, filter paper was used to wick the grids.”
Transmission Electron Microscopy. Transmission electron microscopy (TEM) images were taken with a FEI Talos L120C transmission electron microscope. Samples were diluted to 50 μM and 3 μL was spotted on Formvar/carbon-coated copper grids followed by […] with water, and 3 μL staining with 1% v/v uranyl acetate solution each with incubation times of 1 min. Between steps, filter paper was used to gently wick the grids dry. Following imaging, minimum diameter nanofibers within the physically crosslinked hydrogel were sized in ImageJ software (Version 1.52q).

Series [5] in a line: Fluorescence recovery after photobleaching (FRAP). The conditions noted are these: one-phase association fit. The method, then:
Protein fibrils are capable of blue autofluorescence as a result of protein self-assembly. Fluorescent recovery after photobleaching (FRAP) is measured by photobleaching using a 405 nm laser and measuring the spot intensity over time. This behavior was previously confirmed in the Q protein in a recent characterization. Using the correlation between autofluorescence and fibrilization, the relative autofluorescence of the coiled-coil protein hydrogels was measured. […] To assess the relative laser response, hydrogels were subjected to FRAP imaging using two 100% intensity bleaches at 405 nm excitation followed by imaging at 2 second frame intervals (FIG. 53c).
Confocal Imaging and Fluorescence Recovery After Photobleaching (FRAP). FRAP experiments were performed with a Stellaris 8 Falcon laser scanning confocal microscope on an inverted DMi8 CS stand equipped with 63X NA 1.4 lens. Images were taken with a laser at 405 nm excitation. A pre-bleach image was taken followed by two bleach images using 100% laser intensity for 1.5 s. Following, 41 images were taken post-bleach at 2 s intervals. To measure recovery, FIJI (version 2.3.0) was used to automate background and recovery imaging following photobleaching. Independent background intensities were fit to a one-phase decay equation in GraphPad Prism. Background loss, as a result of photobleaching, from fit values were added to spot intensity values before being fit to a one-phase association equation in GraphPad Prism.

Where “and” joins values, the source holds several entries; their conditions need not be identical. Equal entries are not always repeated. Square brackets hold non-standard residues; d marks the D form. Ends that are not written are not given here. LTF = trifluoroleucine

Consider “Q3: Q variant with V44I pore mutation, SEQ ID NO: 12 (MRGSHHHHHHGSIEGRVKEILFLKNTAYQMLLELKETNEALYDIRHLLQQQSKL) [Protein Q3]”, for which the “fiber diameter after CCM binding (confocal)” value in series [1] is on record as 8.04±1.78 μm. In series [2], the “loss modulus G″” value was 12±2 Pa and 12.3 ± 1.7 Pa; the “storage modulus G′” value was 83±35 Pa and 82.5 ± 35.4 Pa. The “average protein fiber diameter (TEM)” value in series [3] came out at 130±27 nm. Besides, the “hydrogel fibril diameter (TEM)” value in series [4] stood at 32.8±9.8 nm. Besides, in series [5], the Halftime worked out at 34.8 s, the K is 0.0 s⁻¹ and the Tau was 50.1 s.

“Q5: Q hydrogel variant from Rosetta Monte Carlo search, SEQ ID NO: 14 (MRGSHHHHHHGSIEGRVKEITFIKKTIEQIAEEMKEINKAIHDIRHALENISKK) [Protein Q5]”: in series [2], the “loss modulus G″” value was 12±6 Pa and 11.8 ± 6.1 Pa; the “storage modulus G′” value was 229±52 Pa and 228.7 ± 52.2 Pa. The “hydrogel fibril diameter (TEM)” value in series [4] turned out to be 22.2±8.4 nm. Also, in series [5], the Halftime is on record as 12.3 s, the K is 0.1 s⁻¹ and the Tau stood at 17.7 s.

Consider “Q: rationally designed pentameric coiled-coil derived from C, SEQ ID NO: 23 (MRGSHHHHHHGSIEGRVKEITFLKNTAPQMLRELQETNAALQDVRELLRQQSKL) [reference compound]”, for which, in series [1], the “fiber diameter after CCM binding (confocal)” value turned out to be 14.74±5.501 μm. The “average protein fiber diameter (TEM)” value in series [3] is listed as 208±82 nm. The “hydrogel fibril diameter (TEM)” value in series [4] worked out at 40.5±25.2 nm. In series [5], the Halftime is on record as 9.9 s, the K was 0.1 s⁻¹ and the Tau was found to be 14.3 s.

For “Q2LTF: protein-engineered fluorinated coiled-coil fiber, Q2 with trifluoroleucine, SEQ ID NO: 20 (MRGSHHHHHHGSIEGRVKE[LTF][LTF]F[LTF]KKTAEQM[LTF]EE[LTF]KETNKA[LTF]HDVRH[LTF][LTF]ENQSK[LTF]; ends and bridges not checked) [Protein Q2LTF]”, the “average fiber diameter after CCM binding (confocal)” value in series [1] (50 μM Q2LTF, 40 μM curcumin) worked out at 10.8±5.4 μm. Moreover, the “fiber assembly size by TEM” value in series [3] (2 mM, 50 mM Tris, 500 mM NaCl, pH 8.0, 4 °C, n=20) was determined as 215.8±38.6 nm. In addition, in series [3] (as E88), the “diameter of large fiber aggregates” value was not above 840 nm and the median fiber diameter is reported as 181.7 nm. The “striation (protofibril) size by TEM” value in series [3] (n=20) was found to be 3.6±0.8 nm.

Regarding “Q2: coiled-coil protein redesigned from Q for reduced lateral assembly, SEQ ID NO: 11 (MRGSHHHHHHGSIEGRVKELLFLKKTAEQMLEELKETNKALHDVRHLLENQSKL) [Protein Q2]”, the “fiber diameter after CCM binding (confocal)” value in series [1] is recorded as 7.17±2.19 μm. Besides, the “storage modulus G′” value in series [2] is on record as 289.6±86.9 Pa. Moreover, the “average protein fiber diameter (TEM)” value in series [3] is 91±37 nm. In addition, the “hydrogel fibril diameter (TEM)” value in series [4] is 28.9±8.6 nm. In series [5], the Halftime was 11.1 s, the K was found to be 0.1 s⁻¹ and the Tau worked out at 16.0 s.

The values are drawn from patent publication US20240115742A1, “FLUORINATED FIBERS FOR MULTIMODAL 1H AND 19F MRI, ULTRASOUND, FLUORESCENCE DETECTION AND CONFORMATIONAL AND TEMPERATURE DETECTION BY 19F MRS” (New York University, priority 2022, published 2024).
